Biological target: T1, IL13Rα2 on U251-LG target cells (UniProt Q14627 27-380, limits assumed)
T1 sequence (looked up): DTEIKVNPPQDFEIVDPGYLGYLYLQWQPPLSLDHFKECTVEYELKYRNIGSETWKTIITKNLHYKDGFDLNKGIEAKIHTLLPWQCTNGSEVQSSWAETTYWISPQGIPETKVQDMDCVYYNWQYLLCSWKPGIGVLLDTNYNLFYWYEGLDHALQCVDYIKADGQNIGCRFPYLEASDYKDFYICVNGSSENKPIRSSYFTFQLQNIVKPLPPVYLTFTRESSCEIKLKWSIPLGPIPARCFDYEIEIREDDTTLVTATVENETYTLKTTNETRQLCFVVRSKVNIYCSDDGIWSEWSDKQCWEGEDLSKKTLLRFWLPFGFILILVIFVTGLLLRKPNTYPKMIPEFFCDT
Test: cell-based or functional assay

B1: anti-IL13Rα2 CAR VLVH (murine) (other)
chain: DIVMTQSHKFISTSVGDRVSITCKASQDVGTAVAWYQQIPGQSPKLLIYSASYRSTGIPDRFTGSGSGTDFSFIISSVQAEDLALYYCQHHYSAPWTFGGGTTLDIKGGGGSGGGGSGGGGSEVQLVESGGDLVRPGGSLQLSCAASGFTFSRNGMSWVRQTPDRRLEWVATVSSGGSYIYYADSVKGRFTISRDNARNTLYLQMSSLKSEDTAMYYCARQGTTALATRFFDVWGAGTTVTVSSFVPVFLPAKPTTTPAPRPPTPAPTIASQPLSLRPEACRPAAGGAVHTRGLDFACDIYIWAPLAGTCGVLLLSLVITLYCNHRNKRGRKKLLYIFKQPFMRPVQTTQEEDGCSCRFPEEEEGGCELRVKFSRSADAPAYQQGQNQLYNELNLGRREEYDVLDKRRGRDPEMGGKPRRKNPQEGLYNELQKDKMAEAYSEIGMKGERRRGKGHDGLYQGLSTATKDTYDALHMQALPPR
- killing efficiency (lysis of target cells by luciferase activity, 24 h co-culture, effector-to-target ratio 2:1): > 90%

Reference: patent US20240376216A1 (NINGBO T MAXIMUM BIOPHARMACEUTICALS, published 2024)
